Measurements reported in PMC12428753, “Heparanase-Neutralizing Monoclonal Antibody (mAb A54) Attenuates Tumor Growth and Metastasis” (Cells, 2025).
Each block holds one binder with its values, some of them ahead of it.

How the values were obtained:
latent 65 kDa heparanase [1] = molecular target: T1, latent 65 kDa heparanase (Homo sapiens, UniProt Q9Y251); assay: SPR; Biacore analysis; orientation and conditions not told; conditions: both partners purified
T1 construct: heparanase, human, unprocessed 65 kDa latent proenzyme on one chain ('full-length latent heparanase'); also called Hpa65; pro-heparanase; source: recombinant

[2] = molecular target: T2, mature heparanase (active heterodimer of 8 kDa and 50 kDa subunits) (human)
T2 sequence (Q9Y251 whole entry, looked up): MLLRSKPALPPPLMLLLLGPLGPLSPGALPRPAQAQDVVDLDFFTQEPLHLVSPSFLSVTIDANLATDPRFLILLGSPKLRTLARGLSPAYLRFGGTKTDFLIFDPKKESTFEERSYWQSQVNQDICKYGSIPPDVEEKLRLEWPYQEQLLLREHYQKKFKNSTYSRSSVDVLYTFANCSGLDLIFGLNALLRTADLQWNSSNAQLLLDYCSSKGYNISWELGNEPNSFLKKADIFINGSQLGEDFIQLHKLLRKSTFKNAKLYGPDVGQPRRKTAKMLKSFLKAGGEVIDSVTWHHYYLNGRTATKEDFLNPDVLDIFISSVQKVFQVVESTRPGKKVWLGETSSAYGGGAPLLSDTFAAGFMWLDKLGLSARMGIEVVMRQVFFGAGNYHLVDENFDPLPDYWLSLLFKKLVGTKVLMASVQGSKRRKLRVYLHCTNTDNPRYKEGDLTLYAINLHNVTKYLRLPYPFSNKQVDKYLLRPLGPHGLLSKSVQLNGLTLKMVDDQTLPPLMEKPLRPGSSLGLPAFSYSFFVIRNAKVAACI

latent 65 kDa heparanase [3] = molecular target: T1, latent 65 kDa heparanase; assay: ELISA; 96-well microtiter plate coated with latent 65 kDa heparanase (Hpa65); purified mAb A54 or control mouse IgG added at the indicated concentrations; conditions: both partners purified
[4] = molecular target: T3, heparanase protein (form not stated) (human) (UniProt Q9Y251); assay: not stated; binding affinity of the humanized vs. the mouse A54 antibody for the heparanase protein; service by GenScript
T3 sequence: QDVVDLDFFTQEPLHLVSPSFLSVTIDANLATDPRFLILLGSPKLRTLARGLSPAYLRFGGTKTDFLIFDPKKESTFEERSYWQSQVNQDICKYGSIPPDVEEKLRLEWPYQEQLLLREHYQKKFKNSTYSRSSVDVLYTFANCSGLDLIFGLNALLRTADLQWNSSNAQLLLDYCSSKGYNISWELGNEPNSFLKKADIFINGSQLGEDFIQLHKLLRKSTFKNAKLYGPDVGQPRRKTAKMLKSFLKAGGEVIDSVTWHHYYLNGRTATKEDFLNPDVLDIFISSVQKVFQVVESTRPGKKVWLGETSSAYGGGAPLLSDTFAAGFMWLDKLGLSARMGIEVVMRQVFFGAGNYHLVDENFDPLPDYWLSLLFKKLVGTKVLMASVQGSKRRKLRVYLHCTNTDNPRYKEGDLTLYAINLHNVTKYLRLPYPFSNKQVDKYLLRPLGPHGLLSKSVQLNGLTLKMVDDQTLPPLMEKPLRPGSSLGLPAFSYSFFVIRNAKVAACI

- Kd (latent 65 kDa heparanase [1]): 3.18 nM
- inhibition of heparanase enzymatic activity by hybridoma A54 supernatant (release of sulfate-labeled HS degradation fragments from 35S-labeled ECM) [2]: 80%
- IC50 (latent 65 kDa heparanase [3]): 0.2 nM
B1: A54 anti-heparanase monoclonal antibody (purified from hybridoma A54) (antibody, V domains shown)
VH: QVQLQQSGAELAKPGASVRMSCKASGYTFTNYWMHWVKQRPGQGLEWIGYINPTTGYTEYNQKFKDKATLTADKSSSTAYMQLSSLTSEDSAVYYCARGGAGYDYDEDYAMDYWGQGTSVTVSS
VL: DIVLTQSPASLAVSLGQRATISCRASESVEYFGTSYMNWYQQKPGQPPKLLIYLASILESGIPARFSGSGSGTDFTLNIHPVEEEDAATYYCQQSNEDPYTFGGGTKLEIK
notes: VH of A54; the Fab heavy chain is in the deposited structure PDB 9S8W; mouse IgG1 heavy chain constant region (subclass found with an isotyping kit); CH1 is also in PDB 9S8W; VL of A54; the Fab light chain is in the deposited structure PDB 9S8W; mouse kappa light chain constant region (IgG1-Kappa is stated for the recombinant version); also in PDB 9S8W; Mouse IgG1; whole IgG; Only the Fab part is …

- Kd [4]: 1 nM
B2: recombinant A54 mAb (antibody, V domains shown)
VH: B1 VH
VL: B1 VL
